Assays:
[1] = molecular target: T1, biliverdin reductase (Rattus norvegicus, UniProt P46844); assay: Autophosphorylation of biliverdin reductase, in blot method with [γ^32P]-ATP; format: biochemical; conditions: PVDF bound, denatured/renatured
T1 sequence (P46844 3-295): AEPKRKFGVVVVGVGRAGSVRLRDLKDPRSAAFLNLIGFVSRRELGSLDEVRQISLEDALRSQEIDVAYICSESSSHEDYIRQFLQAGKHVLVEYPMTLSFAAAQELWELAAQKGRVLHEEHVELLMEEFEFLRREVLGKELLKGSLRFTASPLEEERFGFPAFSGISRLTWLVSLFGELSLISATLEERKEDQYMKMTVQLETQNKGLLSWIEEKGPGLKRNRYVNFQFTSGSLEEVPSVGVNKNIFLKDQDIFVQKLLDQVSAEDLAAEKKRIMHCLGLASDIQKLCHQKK
Excerpt: The ability of the reductase to phosphorylate itself was examined using the in blot method of Ferrell and Martin (Ferrell et al., Methods Enzymol. 200:430-435 (1991), which is hereby incorporated by reference). Purified wild type or mutant proteins were used.
The ability of the reductase to phosphorylate itself was examined using the in blot method of Ferrell et al., Methods Enzymol. 200:430-435 (1991), which is hereby incorporated by reference. Following electrophoresis on 12.5% SDS-PAGE plus thioglycolate (0.002%), the protein was transferred to PVDF membrane (Millipore). The blot was denatured for I h at room temperature in 7 M guanidine-HCl (pH 8.3) containing 50 mM Tris-base, 50 mM dithiothreitol and 2 mM EDTA and the bound protein was allowed to renature overnight at 4° C. then incubated at room temperature for 4 h in freshly prepared labeling mix containing 10 μCi/ml [γ^32P]-ATP. The membrane first with 30 mM Tris-HCl (pH 7.4) then for 10 min each with 250 ml of the following: with 30 mM Tris-HCl (pH 7.4) twice; with the same buffer containing 0.5% (v/v) NP-40 once; with the Tris buffer twice; with 1 M KOH once; with the Tris buffer, twice . The membrane was blotted, dried, wrapped in plastic wrap, and exposed for autoradiography.

[2] = molecular target: T1, biliverdin reductase; assay: Western blot analysis of phosphorylation of purified rat liver BVR; format: biochemical; conditions: individual anti-phosphotyrosine, -serine, -threonine antibodies
Method: 2D-IEF was performed essentially as detailed previously (Huang et al., J. Biol. Chem. 264:7844-7849 (1989), which is hereby incorporated by reference). The first dimension separation of 3.5 μg of the reductase was carried out by isoelectric focusing (Righetti et al., J Chromatogr. 98:271-321 (1974), which is hereby incorporated by reference) using ampholytes with a 4-6.5 pH range. Electrofocusing was carried out for 17 h at 400 volts then for an additional hour at 800 volts. After focusing, the second dimension separation was carried out using 12.5% SDS polyacrylamide gel. […] The secondary antibody was goat anti-rabbit horseradish peroxidase (Zymed) at a 1:1000 dilution. Detection was carried out using the ECL reagent kit (NEN) according to the manufacturer's instructions. Phosphorylation molecular weight markers were used (Zymed). Soybean trypsin inhibitor (pI 4.55), β-lactoglobin A (pI 5.13), bovine carbonic anhydrase (pI 5.85), and human carbonic anhydrase B (pI 6.57) were used as IEF standards. Immunoblotting was performed by the method of Towbin et al, Proc. Nat. Acad. Sci. USA 76:4350-4354 (1979), which is hereby incorporated by reference. Primary and secondary antibody treatments and staining for peroxidase with 4-chloro-1 -naphthol were performed as described previously (Huang et al., J. Biol. Chem. 264:7844-7849 (1989), which is hereby incorporated by reference).

[3] = system: histone III-S; assay: BVR kinase activity, 32P incorporation into exogenous substrate; format: biochemical
Method: (§1) Incubation time was 8 min at 30° C.

[4] = system: HO-1; assay: as above; format: biochemical, rat
Method: as §1

[5] = system: HO-2; assay: as above; format: biochemical, rat
Method: as §1

[6] = system: PKC; assay: Effect of BVR and peptides on PKC activity (MBP substrate, kinetic analysis); format: biochemical
Method: FIGS. 11A-C are graphs depicting the role of BVR in increasing protein kinase C activity. FIG. 11A depicts the dose-dependence of PKC activity in the presence of BVR or PKC inhibitor peptide (“PKCI”) in an assay system containing 0.5 μg/ml PKC, 50 μM unlabeled ATP, 5 μCi[^32γP]-ATP and 1 mg/ml MBP and carried out as described infra. FIGS. 11B-C are the kinetic analyses of PKC activity carried out with respect to MBP (FIG. 11B) and with respect to ATP (FIG. 11C) in the presence or absence of 50 μM BVR.
FIGS. 12A-C are graphs illustrating the effect of various rBVR fragments on PKC activity. Protein kinase C was incubated at 30° C. with buffer or with the indicated peptides (50 μM) for 15 min prior to addition to a kinase assay using MBP as substrate. FIG. 12A depicts the relative activity for each sample normalizing to that of the PKC and buffer control value. FIGS. 12B-C are the kinetic analyses of PKC with respect to substrate MBP (FIG. 12B) and ATP (FIG. 12C) in the presence or absence of BVR peptide fragments (50 μM). BVR1 peptide corresponds to SEQ. ID. No. 34 and BVR2 peptide corresponds to SEQ. ID. No. 19.
as §1

[7] = system: PKC (a mixture containing equal amounts of isozymes α, β and γ); assay: Overlay assay for PKC binding by rat BVR; conditions: 2 μg rat liver BVR, 500 ng/ml PKC
Method: The physical interaction of BVR with PKC was assessed using an overlay assay based on that described by Wolf and Sahyoun (J. Biol. Chem. 261:13327-13331 (1986), which is hereby incorporated by reference) with known modifications (Chapline et al., J. Biol. Chem. 268:6858-6861 (1993), which is hereby incorporated by reference). Purified rat liver BVR (2 μg) was subjected to SDS-PAGE and transferred to nitrocellulose membrane. The membrane was blocked, washed, and then overlaid with a solution containing 500 ng/ml of PKC (a mixture containing equal amounts of isozymes α, β and γ) (Promega) in TBS containing 10 mg/ml BSA, 20 μg/ml phosphatidylserine, 1 mM EGTA, 1.2 mM CaCl2, 10 μg/ml leupeptin and 10 μg/ml aprotinin. After incubation for 1 h at room temperature, the blot was extensively washed with the PBS containing the same supplements as the overlay solution, but lacking the kinase mixture. The protein on the membrane was fixed by incubation in 0.5% formaldehyde in PBS and then reactive aldehyde groups were blocked by incubation in 2% glycine in TBS for 20 min at room temperature. The membrane was then washed 3 times with TBS and was cut in two, one half was subjected to Western blot analysis using a 1:1000 dilution of anti-PKC for 2 h at room temperature as the primary antibody, while the second half was probed with rabbit anti-rat BVR as detailed above for Western blotting. […]

[8] = Reductase activity of BVR purified from rat liver; format: biochemical; conditions: purified to homogeneity
Method: BVR was purified from rat liver to homogeneity (3,000 nmol bilirubin/min/mg protein) as described before (O'Carra et al., J. Biochem. 125:110P (1971), which is hereby incorporated by reference), with modifications (Huang et al., J. Biol. Chem. 264:7844-7849 (1989), which is hereby incorporated by reference). Activity was determined at pH 8.7 with NADPH in Tris-HCl with […] in potassium phosphate buffer. The substrate concentration was 5 μM. The rate of activity was measured by the increase in 450 nm absorbance at 25° C. The purified reductase, which was judged to be homogenous by SDS-PAGE, stained with Coomasie Brilliant Blue (Sigma), was used for preparation of polyclonal antibody in New Zealand rabbits (O'Carra et al., J. Biochem. 125:110P (1971), which is hereby incorporated by reference). Protein concentration was determined by Bradford's method (Bradford, Anal. Biochem. 72:248-254 (1976), which is hereby incorporated by reference).

[9] = system: MBP; conditions: ^32P incorporation
Method: Kinase reactions were carried out based on the assay as described by Roskoski (Roskoski, Methods Enzymol. 99:3-6 (1983), which is hereby incorporated by reference) in a 50 μl volume in a reaction buffer consisting of 20 mM Tris HCl (pH 7.4) containing 10 mM MgCl2, 50 mM unlabeled ATP, 5 μCi [γ^32 P]-ATP and 1 mg/ml substrate. Substrates used were prepared as 10 mg/ml stock in 0.2 M Tris-HCl (pH 7.4) and stored at -20° C. The substrates utilized were MBP and histone III-S (Sigma) and E. coli expressed purified preparations of full length rat HO-1 and HO-2 (McCoubrey et al., J. Biol. Chem. 272:12568-12574 (1997), which is hereby incorporated by reference). The substrate/reaction buffer was incubated at 30° C. for 4 min prior to the addition of 5 μl of enzyme source (2 mg/ml BVR, 0.5 μg/ml PKC) or enzyme vehicle (GST-PBS containing 10% glycerol). Samples were mixed by aspiration and were then incubated for 8-15 min at 30° C. An aliquot (40 μl) from the reaction mixture was spotted onto a P81 (Whatman) filter, which was immediately immersed in 75 mM phosphoric acid for ≧5 min. Filters were washed 5× for 5 min each in 75 mM phosphoric acid and then 1× for 5 min with acetone before being air dried and counted by liquid scintillation counting in 10 ml ScintiVerse BD (Fisher). […] Activity was determined as ^32P counts incorporated into the acceptor protein per minute. […]

[10] = in the presence of 50 μM BVR or peptide

B1: BVR: rat biliverdin reductase, SEQ. ID. No. 4, purified from rat liver (Example 3) (protein, listed as Rattus norvegicus)
chain: MDAEPKRKFGVVVVGVGRAGSVRLRDLKDPRSAAFLNLIGFVSRRELGSLDEVRQISLEDALRSQEIDVAYICSESSSHEDYIRQFLQAGKHVLVEYPMTLSFAAAQELWELAAQKGRVLHEEHVELLMEEFEFLRREVLGKELLKGSLRFTASPLEEERFGFPAFSGISRLTWLVSLFGELSLISATLEERKEDQYMKMTVQLETQNKGLLSWIEEKGPGLKRNRYVNFQFTSGSLEEVPSVGVNKNIFLKDQDIFVQKLLDQVSAEDLAAEKKRIMHCLGLASDIQKLCHQKK
autophosphorylation [1]: able to phosphorylate itself
phosphoamino acids present [2]: esterified on tyrosine (panel b), serine (panel c), and threonine (panel d) residues
phosphate transferred by BVR to histone III-S [3]: ~1,000 cpm/min
HO-1 as substrate for BVR phosphotransferase activity [4]: not substrates
HO-2 as substrate for BVR phosphotransferase activity [5]: not substrates
effect on Km of the PKC reaction with respect to ATP ([6]; BVR 50 μM): negligible
dose dependence of PKC activity (^32P into MBP) ([6]; PKC preincubated 15 min at 30° C., MBP substrate): increased in a dose-dependent manner
Vmax of the PKC reaction with respect to ATP [6, 10]: 2.9 pmol/min
Vmax of the PKC reaction with respect to MBP [6, 10]: 4.9 pmol/min
substrate Km of the PKC reaction ([6]; upon addition of BVR (50 μM), MBP): 0.16 mg/mL
PKC binding (overlay, anti-PKC Western) [7]: PKC-interactive protein
specific activity of purified rat liver BVR [8]: 3,000 nmol bilirubin/min/mg protein
phosphate transferred by BVR to MBP [9]: ~4,000 cpm/min
